Reference: article PMC6049929, “Exchange of functional domains between a bacterial conjugative relaxase and the integrase of the human adeno-associated virus”

Key:
[1] = target: TrwC/Rep chimera (untagged) (plasmid R388 / human adeno-associated virus (AAV)) (UniProt P03132); test: fluorescence polarization; conditions: EMSA: 10 mM Hepes-KOH pH 7.5, 10 mM KCl, 3.3 mM MgCl2, 1 mM EDTA, 2.5 mM DTT, 400 ng poly(dI-dC), 15 mM (Rep68) or 75 mM (chimera) NaCl, room temperature 20 min
[2] = target: His-TrwC/Rep chimera (plasmid R388 / human adeno-associated virus (AAV)) (UniProt P03132); test: competition; conditions: EMSA: 10 mM Hepes-KOH pH 7.5, 10 mM KCl, 3.3 mM MgCl2, 1 mM EDTA, 2.5 mM DTT, 400 ng poly(dI-dC), 15 mM (Rep68) or 75 mM (chimera) NaCl, room temperature 20 min
[3] = target: His-TrwC/Rep chimera (plasmid R388 / human adeno-associated virus (AAV)) (UniProt P03132); test: EMSA; conditions: EMSA: 10 mM Hepes-KOH pH 7.5, 10 mM KCl, 3.3 mM MgCl2, 1 mM EDTA, 2.5 mM DTT, 400 ng poly(dI-dC), 15 mM (Rep68) or 75 mM (chimera) NaCl, room temperature 20 min
[4] = target: TrwC/Rep chimeric protein (N-terminal relaxase domain of R388 TrwC fused to the C-terminal domain of AAV2 Rep68) (bacterial plasmid R388 (E. coli) | adeno-associated virus 2 (AAV2)) (UniProt Q47673); test: AUC; sedimentation velocity, 20°C, 492 nm; 3.32 μM TrwC/Rep chimera with 0.83 μM 5' 6-carboxyfluorescein oriTw(34-mer) ssDNA (protein/DNA 4:1); oligomer size from the theoretical S of a globular complex
[5] = target: His-Rep68 (human adeno-associated virus (AAV), UniProt P03132 1-536); test: EMSA; 100 ng protein, 15 mM NaCl; EMSA: 10 mM Hepes-KOH pH 7.5, 10 mM KCl, 3.3 mM MgCl2, 1 mM EDTA, 2.5 mM DTT, 400 ng poly(dI-dC), 15 mM (Rep68) or 75 mM (chimera) NaCl, room temperature 20 min; FP: 25 mM HEPES pH 7.0, 200 mM NaCl, 25 C; AUC: 25 mM Tris-HCl pH 7.9, 200 mM NaCl, 1 mM TCEP, 20 C; conditions: protein: recombinant, tags: N-terminal His (pET15b, PreScission site)

## AGCGCACCGAAAGGTGCGTATTGTCTATAGCCCA [oriTw 34-mer (oriTw(25+8) plus 5' dA)]
[1]
  Kd: 16 nM

## GCGCACCGAAAGGTGCGTATTGTCTATAGCCCA [oriTw(25+8)]
[2]
  binding signal: 24 % shifted
[3]
  binding signal: 49 % shifted

## TrwC/Rep chimeric protein (N-terminal relaxase domain of R388 TrwC fused to the C-terminal domain of AAV2 Rep68) (from UniProt Q47673 2-293; P03132 209-536) (enzyme)
[4]
  stoichiometry N: > 6 subunits

B1: AAV ori RBSmut (dsDNA)
DNA 1: CTAGATGATGGAGTTGGCCACTCCCTCTCTCCTCCCTCCCTCCCTCACTG
DNA 2: TCGACAGTGAGGGAGGGAGGGAG
[5]; label: 32P 5' end, top strand
  binding result: no binding

## GCGCACCGAAAGGTGCGTATTGTCTATAGCCCA (ssDNA) [oriTw(25+8)]
[5]; label: 32P, inverted repeat IR2
  binding result: no binding
